Source: article PMC10296332, “Vertically-Ordered Mesoporous Silica Film Based Electrochemical Aptasensor for Highly Sensitive Detection of Alpha-Fetoprotein in Human Serum”

Target: T1, alpha-fetoprotein (AFP) (UniProt P02771 19-609)
T1 sequence: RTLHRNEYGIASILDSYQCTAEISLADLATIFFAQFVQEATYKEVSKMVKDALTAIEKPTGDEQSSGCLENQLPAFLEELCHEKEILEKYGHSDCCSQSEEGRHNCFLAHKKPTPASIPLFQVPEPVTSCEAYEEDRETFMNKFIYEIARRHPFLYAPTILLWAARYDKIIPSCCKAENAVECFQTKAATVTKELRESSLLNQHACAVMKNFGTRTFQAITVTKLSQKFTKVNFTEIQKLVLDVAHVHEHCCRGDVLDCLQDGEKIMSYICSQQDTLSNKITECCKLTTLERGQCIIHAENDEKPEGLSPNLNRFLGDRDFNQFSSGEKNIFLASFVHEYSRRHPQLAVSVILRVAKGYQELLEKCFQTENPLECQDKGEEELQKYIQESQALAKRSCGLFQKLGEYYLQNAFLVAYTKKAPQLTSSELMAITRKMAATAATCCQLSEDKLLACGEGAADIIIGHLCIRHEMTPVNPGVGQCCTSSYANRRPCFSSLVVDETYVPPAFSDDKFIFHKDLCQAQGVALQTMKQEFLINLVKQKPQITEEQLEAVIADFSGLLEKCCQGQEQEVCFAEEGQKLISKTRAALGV
Test: electrochemical aptasensor (DPV, CV, EIS; Fe(CN)6 3-/4- probe); immobilized aptamer, BSA-blocked; linear 1 pg/mL-1 ug/mL, LOD 0.31 pg/mL (not a Kd); AFP incubated 1 h at 4 C on aptamer electrode, rinsed with 0.01 M PBS (sodium phosphate) pH 7.4; read-out in 2.5 mM K3/K4[Fe(CN)6], 0.1 M KCl
Conditions: protein: commercial

B1: AFP aptamer (ssDNA)
DNA: GTGACGCTCCTAACGCTGACTCAGGTGCAGTTCTCGACTCGGTCTTGATGTGGGTCCTGTCCGTCCGAACCAATC
modifications: 5'-NH2, coupled to GPTMS epoxy groups on mesoporous silica film
**Q.** Does B1 bind?
**A.** binds
